Test results taken from article PMC4326362, “Non-canonical regulation of phosphatidylinositol 3-kinase gamma isoform activity in retinal rod photoreceptor cells” (Cell Communication and Signaling : CCS, 2015).

Columns and labels:
Test in all cases: co-IP; Flag-tagged CTR-CNGA1 (wild type or mutant) and Myc-tagged RA domains co-expressed in HEK-293T cells; reciprocal immunoprecipitation with anti-Flag or anti-Myc antibodies (IgG as control), immunoblot, densitometry
Conditions in all cases: partners not purified
[1] = biological target: T1, CTR-CNGA1 (D577N) (UniProt Q00194 483-690, D577N)
T1 construct: CNGA1 C-terminal region, residues 483-690, with D577N; Mutant of m1 made by site-directed mutagenesis; source: HEK-293T, transfected (pCDNA3), in lysate; not shown: FLAG, N-terminal, kept
T1 sequence (looked up): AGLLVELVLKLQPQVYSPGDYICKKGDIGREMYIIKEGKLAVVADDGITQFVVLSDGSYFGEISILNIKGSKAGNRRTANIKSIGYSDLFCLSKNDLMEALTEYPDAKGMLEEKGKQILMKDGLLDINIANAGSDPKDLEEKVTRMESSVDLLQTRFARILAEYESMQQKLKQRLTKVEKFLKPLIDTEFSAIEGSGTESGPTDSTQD

[2] = biological target: T2, CTR-CNGA1 (E581Q) (UniProt Q00194 483-690, E581Q)
T2 construct: CNGA1 C-terminal region, residues 483-690, with E581Q; Mutant of m1 made by site-directed mutagenesis; source: HEK-293T, transfected (pCDNA3), in lysate; not shown: FLAG, N-terminal, kept
T2 sequence (looked up): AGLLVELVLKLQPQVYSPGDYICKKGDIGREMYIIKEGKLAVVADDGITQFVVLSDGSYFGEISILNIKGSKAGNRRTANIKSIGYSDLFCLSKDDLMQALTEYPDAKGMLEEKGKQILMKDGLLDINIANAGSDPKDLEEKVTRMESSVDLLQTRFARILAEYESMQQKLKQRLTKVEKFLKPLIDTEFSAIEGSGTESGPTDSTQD

[3] = biological target: T3, CTR-CNGA1 (D577,578 N) (UniProt Q00194 483-690, D577,578 N | D577,578 N)
T3 construct: CNGA1 C-terminal region, residues 483-690, with D577N and D578N; Mutant of m1 made by site-directed mutagenesis; source: HEK-293T, transfected (pCDNA3), in lysate; not shown: FLAG, N-terminal, kept
T3 sequence (looked up): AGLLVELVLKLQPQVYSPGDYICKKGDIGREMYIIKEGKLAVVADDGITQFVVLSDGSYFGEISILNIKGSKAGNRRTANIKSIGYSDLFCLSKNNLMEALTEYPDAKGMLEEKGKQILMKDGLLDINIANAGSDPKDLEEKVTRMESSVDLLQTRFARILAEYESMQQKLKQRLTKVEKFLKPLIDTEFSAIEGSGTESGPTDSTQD

- percent disruption of the interaction against wild type [1]: 30 percent
- percent disruption of the interaction against wild type [2]: 50 percent
- percent disruption of the interaction against wild type [3]: 45 percent
B1: Myc-tagged RA domain of PI3Kγ (residues 141-311) (domain or fragment, UniProt P48736 141-311, looked up)
chain: HPPSEESQAFQRQLTALIGYDVTDVSNVHDDELEFTRRGLVTPRMAEVASRDPKLYAMHPWVTSKPLPEYLWKKIANNCIFIVIHRSTTSQTIKVSPDDTPGAILQSFFTKMAKKKSLMDIPESQSEQDFVLRVCGRDEYLVGETPIKNFQWVRHCLKNGEEIHVVLDTPP
notes: also called RA-PI3Kγ; PI3Kγ-RA; source: HEK-293T, transfected (pCDNA3), in lysate
